According to publication PMC8455438 (Molecular cell, 2021):
Where two headings read alike, the source gives them in different places.

T1: Recombinant IDH2 (R140Q) protein (ACTIVE MOTIF) (human, UniProt P48735 40-452, R140Q)
T1 sequence (looked up): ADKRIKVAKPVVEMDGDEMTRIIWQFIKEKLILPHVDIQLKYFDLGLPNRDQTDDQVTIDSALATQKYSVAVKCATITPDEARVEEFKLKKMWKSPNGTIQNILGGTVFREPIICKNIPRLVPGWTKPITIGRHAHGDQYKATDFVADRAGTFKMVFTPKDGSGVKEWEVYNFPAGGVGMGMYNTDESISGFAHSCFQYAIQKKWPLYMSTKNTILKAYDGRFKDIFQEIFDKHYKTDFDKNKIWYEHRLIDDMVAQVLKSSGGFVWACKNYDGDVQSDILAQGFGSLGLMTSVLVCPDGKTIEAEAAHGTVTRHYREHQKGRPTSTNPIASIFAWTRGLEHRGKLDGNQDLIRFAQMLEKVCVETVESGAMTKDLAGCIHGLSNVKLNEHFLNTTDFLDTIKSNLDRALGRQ


Legend:
native gel or EMSA [1] = molecular target: the molecule itself; test: native gel or EMSA
native gel or EMSA [2] = molecular target: the molecule itself; test: native gel or EMSA; remark: listed apart in the source
[3] = molecular target: T1, Recombinant IDH2 (R140Q) protein …; test: co-IP

Row | binding result [3] | Binder | stoichiometry N (native gel or EMSA [1]) | further results
1 |  | 6xHis-IDH2 R140Q-FLAG, K413 not acetylated (pre-treated with cobB protein deacetylase, or deacetylated by rSIRT3) (enzyme, human, UniProt P48735 40-452, looked up) ADKRIKVAKPVVEMDGDEMTRIIWQFIKEKLILPHVDIQLKYFDLGLPNRDQTDDQVTIDSALATQKYSVAVKCATITPDEARVEEFKLKKMWKSPNGTIQNILGGTVFREPIICKNIPRLVPGWTKPITIGRHAHGDQYKATDFVADRAGTFKMVFTPKDGSGVKEWEVYNFPAGGVGMGMYNTDESISGFAHSCFQYAIQKKWPLYMSTKNTILKAYDGRFKDIFQEIFDKHYKTDFDKNKIWYEHRLIDDMVAQVLKSSGGFVWACKNYDGDVQSDILAQGFGSLGLMTSVLVCPDGKTIEAEAAHGTVTRHYREHQKGRPTSTNPIASIFAWTRGLEHRGKLDGNQDLIRFAQMLEKVCVETVESGAMTKDLAGCIHGLSNVKLNEHFLNTTDFLDTIKSNLDRALGRQ | 2 | 
2 |  | 6xHis-IDH2 R140Q-FLAG, K413-acetylated (by rACAT1 after cobB pre-treatment, or with intrinsic lysine acetylation obtained in bacteria) (enzyme, human, UniProt P48735 40-452, looked up, acetyl-lysine at K413 (rACAT1 acetylates mutant IDH2 at multiple lysine sites; intrinsic lysine acetylation obtained in bacteria)) ADKRIKVAKPVVEMDGDEMTRIIWQFIKEKLILPHVDIQLKYFDLGLPNRDQTDDQVTIDSALATQKYSVAVKCATITPDEARVEEFKLKKMWKSPNGTIQNILGGTVFREPIICKNIPRLVPGWTKPITIGRHAHGDQYKATDFVADRAGTFKMVFTPKDGSGVKEWEVYNFPAGGVGMGMYNTDESISGFAHSCFQYAIQKKWPLYMSTKNTILKAYDGRFKDIFQEIFDKHYKTDFDKNKIWYEHRLIDDMVAQVLKSSGGFVWACKNYDGDVQSDILAQGFGSLGLMTSVLVCPDGKTIEAEAAHGTVTRHYREHQKGRPTSTNPIASIFAWTRGLEHRGKLDGNQDLIRFAQMLEKVCVETVESGAMTKDLAGCIHGLSNVKLNEHFLNTTDFLDTIKSNLDRALGRQ |  | stoichiometry N (native gel or EMSA [2]): 2
3 |  | 6xHis-IDH2 R140Q/K413Q-FLAG (acetyl-mimetic) (enzyme, human, UniProt P48735 40-452, looked up) ADKRIKVAKPVVEMDGDEMTRIIWQFIKEKLILPHVDIQLKYFDLGLPNRDQTDDQVTIDSALATQKYSVAVKCATITPDEARVEEFKLKKMWKSPNGTIQNILGGTVFREPIICKNIPRLVPGWTKPITIGRHAHGDQYKATDFVADRAGTFKMVFTPKDGSGVKEWEVYNFPAGGVGMGMYNTDESISGFAHSCFQYAIQKKWPLYMSTKNTILKAYDGRFKDIFQEIFDKHYKTDFDKNKIWYEHRLIDDMVAQVLKSSGGFVWACKNYDGDVQSDILAQGFGSLGLMTSVLVCPDGKTIEAEAAHGTVTRHYREHQKGRPTSTNPIASIFAWTRGLEHRGKLDGNQDLIRFAQMLEKVCVETVESGAMTQDLAGCIHGLSNVKLNEHFLNTTDFLDTIKSNLDRALGRQ | 2 | 
4 |  | 6xHis-IDH2 R140Q/K413R-FLAG (acetyl-deficient) (enzyme, human, UniProt P48735 40-452, looked up) ADKRIKVAKPVVEMDGDEMTRIIWQFIKEKLILPHVDIQLKYFDLGLPNRDQTDDQVTIDSALATQKYSVAVKCATITPDEARVEEFKLKKMWKSPNGTIQNILGGTVFREPIICKNIPRLVPGWTKPITIGRHAHGDQYKATDFVADRAGTFKMVFTPKDGSGVKEWEVYNFPAGGVGMGMYNTDESISGFAHSCFQYAIQKKWPLYMSTKNTILKAYDGRFKDIFQEIFDKHYKTDFDKNKIWYEHRLIDDMVAQVLKSSGGFVWACKNYDGDVQSDILAQGFGSLGLMTSVLVCPDGKTIEAEAAHGTVTRHYREHQKGRPTSTNPIASIFAWTRGLEHRGKLDGNQDLIRFAQMLEKVCVETVESGAMTRDLAGCIHGLSNVKLNEHFLNTTDFLDTIKSNLDRALGRQ | 2 | 
5 | binds | recombinant ACAT1 (mitochondrial acetyl-coA acetyltransferase), wild type (enzyme, UniProt P24752 34-427, looked up) VSKPTLKEVVIVSATRTPIGSFLGSLSLLPATKLGSIAIQGAIEKAGIPKEEVKEAYMGNVLQGGEGQAPTRQAVLGAGLPISTPCTTINKVCASGMKAIMMASQSLMCGHQDVMVAGGMESMSNVPYVMNRGSTPYGGVKLEDLIVKDGLTDVYNKIHMGSCAENTAKKLNIARNEQDAYAINSYTRSKAAWEAGKFGNEVIPVTVTVKGQPDVVVKEDEEYKRVDFSKVPKLKTVFQKENGTVTAANASTLNDGAAALVLMTADAAKRLNVTPLARIVAFADAAVEPIDFPIAPVYAASMVLKDVGLKKEDIAMWEVNEAFSLVVLANIKMLEIDPQKVNINGGAVSLGHPIGMSGARIVGHLTHALKQGEYGLASICNGGGGASAMLIQKL |  | 
6 | binds | recombinant ACAT1 Y407F (phosphor-deficient mutant) (enzyme, UniProt P24752 34-427, looked up) VSKPTLKEVVIVSATRTPIGSFLGSLSLLPATKLGSIAIQGAIEKAGIPKEEVKEAYMGNVLQGGEGQAPTRQAVLGAGLPISTPCTTINKVCASGMKAIMMASQSLMCGHQDVMVAGGMESMSNVPYVMNRGSTPYGGVKLEDLIVKDGLTDVYNKIHMGSCAENTAKKLNIARNEQDAYAINSYTRSKAAWEAGKFGNEVIPVTVTVKGQPDVVVKEDEEYKRVDFSKVPKLKTVFQKENGTVTAANASTLNDGAAALVLMTADAAKRLNVTPLARIVAFADAAVEPIDFPIAPVYAASMVLKDVGLKKEDIAMWEVNEAFSLVVLANIKMLEIDPQKVNINGGAVSLGHPIGMSGARIVGHLTHALKQGEFGLASICNGGGGASAMLIQKL |  | 
7 | binds | recombinant ACAT1 treated with rFLT3 (Y407-phosphorylated) (enzyme, UniProt P24752 34-427, looked up, phosphotyrosine at Y407 (by rFLT3)) VSKPTLKEVVIVSATRTPIGSFLGSLSLLPATKLGSIAIQGAIEKAGIPKEEVKEAYMGNVLQGGEGQAPTRQAVLGAGLPISTPCTTINKVCASGMKAIMMASQSLMCGHQDVMVAGGMESMSNVPYVMNRGSTPYGGVKLEDLIVKDGLTDVYNKIHMGSCAENTAKKLNIARNEQDAYAINSYTRSKAAWEAGKFGNEVIPVTVTVKGQPDVVVKEDEEYKRVDFSKVPKLKTVFQKENGTVTAANASTLNDGAAALVLMTADAAKRLNVTPLARIVAFADAAVEPIDFPIAPVYAASMVLKDVGLKKEDIAMWEVNEAFSLVVLANIKMLEIDPQKVNINGGAVSLGHPIGMSGARIVGHLTHALKQGEYGLASICNGGGGASAMLIQKL |  | 
